The target of assay [1] is T1, tetanus neurotoxin (TeNT), authentic tetanus holotoxin (Clostridium tetani, UniProt P04958 2-1315). Briefly: ELISA: directly coated TeNT, anti-his6 PO. For orientation: ELISA stands for enzyme-linked immunosorbent assay.
The target of assay [2] is T1, tetanus neurotoxin (TeNT), authentic …. Briefly: bridging ELISA: coated TeNT, SDA, biotinylated TeNT, StrepPO (bivalent binding).
Assay [3] shares this target. The experiment in a line: ELISA: directly coated TeNT, goat anti-llama Ig PO.
The target in assay [4] is dog IgG (chrompure dog IgG) (dog).
Assay [5] has the same target. The source holds these as a separate data set.
Assay [6] deals with T1, tetanus neurotoxin (TeNT), authentic …. Briefly: GT1b-TeNT inhibition ELISA.
For assay [7] the target is unchanged. Briefly: GT1b-TeNT inhibition ELISA. This is another data set of the same source.
The target is the same in assay [8]. The experiment in a line: ELISA: directly coated TeNT, goat anti-llama Ig PO. This is another data set of the same source.
The target is the same in assay [9]. Briefly: ELISA: directly coated TeNT, anti-his6 PO. This is another data set of the same source.
Assay [10] shares this target. The experiment in a line: bridging ELISA: coated TeNT, SDA, biotinylated TeNT, StrepPO (bivalent binding). The source holds these as a separate data set.
In assay [11] the target is T2, Tetanus neurotoxin (TeNT), authentic tetanus holotoxin (Clostridium tetani, UniProt P04958 2-1315).
Assay [12] deals with T1, tetanus neurotoxin (TeNT), authentic …. The experiment in a line: BLI (Octet Red96): biotinylated SDA on SA sensor, TeNT as analyte. On the technique in general: In BLI a coated tip is dipped into the sample, and binding shifts an interference pattern.
Assay [13] addresses T2, Tetanus neurotoxin (TeNT), authentic …. Briefly: BLI (Octet Red96), biotinylated SDA on SA sensor, TeNT as analyte.
Assay [14] addresses T3, human serum albumin (human, UniProt P02768 25-609).
T3 construct: mature; also called human Alb
Briefly: ELISA, E. coli supernatant.

For assay [15], the target named is T3, human serum albumin. Briefly: ELISA, coated albumin, E. coli supernatant.
Assay [16] concerns the target T1, tetanus neurotoxin (TeNT), authentic …. The experiment in a line: BLI (Octet Red96); avidity (bivalent for TeNT); format for this SDA not told.
The next assay has as its target T4, Cat albumin (cat, UniProt P49064 25-608).
T4 construct: also called Feline albumin; Feline Alb
The experiment in a line: BLI (Octet Red96), SDA on Ni-NTA sensor, albumin as analyte.

In another assay the target is T5, Horse albumin (horse, UniProt P35747 25-607).
T5 construct: also called Equine albumin; Equine Alb
The assay is described as above.

The target in a further assay is T6, Dog albumin (dog, UniProt P49822 25-608).
T6 construct: also called Canine albumin; Canine Alb
Described as above.

Read-outs that look alike come from different tables or passages of the source.

B1: SVG06L (VHH)
VHH: QVQLQESGGALVQPGGSLRLSCAASGFPFSAYDMTWVRQAPGQGLEWVSTIHKSGGITTYADSVKGRFTISRDNAKNTLYLQMNNLESEDTAVYYCAKALRAHNSDYVGRNALGSWGEGTLVTVSS
As for B1, the “Effective SDA Concentration at A450 0.15” value in assay [1] and in assay [3] was above 1000 ng/mL in each case. For the same molecule, in assay [1], the binding result was “no binding (tested: 1000 ng/ml (A450 0.15 not reached))”. Also, the “Effective SDA Concentration at A450 0.3” value in [2] was above 1000 ng/mL. The “Effective SDA Concentration at A450 0.2” value in assay [4] turned out to be 164 ng/mL. Also, the maximal absorbance value in [5] worked out at 0.56 A450; in [8], 0.07 A450; in assay [9], 0.05 A450; in assay [10] it was 0.14 A450. In assay [6], the “minimal absorbance value (GT1b-TeNT inhibition)” value is 0.8 A450. Moreover, the “Effective SDA Concentration at A450 0.56” value in assay [7] is above 1000 ng/mL.

B2: SVT03L (VHH)
VHH: QVQLQQSGGGSVQTGDSLTLSCTASGGSLNSYFVGWFRQSGGKEREFVSVIARTGRSTSYADSVKGRFTISRDNAANTVFLTMNNLRPDDTAIYYCAAVGRPGVLHLTQSYDYWGQGTQVTVSS
With B2, in assay [11], the Kd was 0.0014 nM, the koff (commonly the rate constant with which the complex falls apart) was determined as 6.64e-06 s⁻¹ and the kon (usually the second-order rate constant of association) was found to be 4.62e+06 M⁻¹ s⁻¹.

B3: SVT06L (VHH)
VHH: QVQLQESGGGSVQAGGSLRLSCTASELSYDDYTIAWFRRAAGEGRVEDGEGVASITKSYDRAYDNKINYGHSVKGRFTISRDNAKNTVYLQMTDLLPSDTAVYYCALDITPPGGVGASLTEGFLFDYWGQGTQVTVSS
Consider B3, for which the figures for the “Effective SDA Concentration at A450 0.15” value in assay [1] and in assay [3] were 4.9 ng/mL and 14 ng/mL, respectively. In addition, the “Effective SDA Concentration at A450 0.3” value in assay [2] came to 64 ng/mL. In assay [12], this molecule gave a Kd of 0.535 nM. In assay [12], the koff amounted to 6.27e-05 s⁻¹. The molecule also returned a kon in assay [12] of 117000 M⁻¹ s⁻¹. Further, the “minimal absorbance value (GT1b-TeNT inhibition)” value in [6] turned out to be 0.27 A450. The “Effective SDA Concentration at A450 0.56” value in [7] is 33 ng/mL. Also, the maximal absorbance value came out at 0.32 A450 in [8], 1.44 A450 in assay [9] and 0.35 A450 in [10].

B4: SVT06L (VHH)
VHH: QVQLQESGGGSVQAGGSLRLSCTASELSYDDYTIAWFRRAAGEGRVEDGEGVASITKSYDRAYDNKINYGHSVKGRFTISRDNAKNTVYLQMTDLLPSDTAVYYCALDITPPGGVGASLTEGFLFDYWGQGTQVTVSS
As for B4, in [13], the Kd is 0.224 nM, the off-rate (koff) was determined as 0.000113 s⁻¹ and the kon came to 503000 M⁻¹ s⁻¹.

B5: SVT16-L123Q-GS2-SVG13M4-H6 (bispecific antibody)
chain: QVQLQESGGGSVQAGDSLRLSCAASGRTISNYAMGWFRQAPGKQREFVAAISRSDNTYYTDSVKGRFTISRDNAKNTLYLQMNSLKPEETAVYYCAADPNLMYESKWKYRALEAWGQGTQVTVSSGGGGSGGGSEVQLVESGGGLVQPGGSLRLSCEASGFTFDDYGMSWVRQAPGKGLEWVSSLTPNGGSTYYADSVKGRFTISRDNAKNTLYLQMNSLKPEDTALYYCAKNSYYGAMDYWGQGTQVTVSSHHHHHH
As for B5, the “Effective SDA Concentration at A450 0.2” value in assay [4] turned out to be 127 ng/mL. In assay [5], the maximal absorbance value was found to be 0.69 A450.

B6: SVA04 (VHH, not shown: large carriers)
VHH: QVQLQQSGGGLVQAGGSLRLACAASGRTLSSYVMGWFRQAPGKEREFVAAISWSGGSTYYADSVKGRFTISRDNAKNTVYLQMNSLKPEDTAVYYCAATLRGSNRYYSGRVYDYWGQGTQVTVSS
For the molecule B6, the binding result with human serum albumin [14] was “no binding”. The “absorbance at 450 nm” value with human serum albumin [15] came to 0.085 A450.

B7: SVT15-3FW4M-GS2-SVG13M4-H6 (bispecific antibody)
chain: QVQLQESGGGLVQTGGSLRLSCRASGRAFANYHFGWFRQAPGKDREFVASISWKGGSTYYANFALGRFTSSVDRAESSVYLQMSGLTPEDTATYYCAAHDGGDWNYHTGMDYWGQGTQVTVSSGGGGSGGGSEVQLVESGGGLVQPGGSLRLSCEASGFTFDDYGMSWVRQAPGKGLEWVSSLTPNGGSTYYADSVKGRFTISRDNAKNTLYLQMNSLKPEDTALYYCAKNSYYGAMDYWGQGTQVTVSSHHHHHH
On to B7, for which, in assay [11], the Kd came out at 0.0209 nM, the koff amounted to 8.15e-06 s⁻¹ and the kon is 390000 M⁻¹ s⁻¹.

B8: SVG13L (VHH)
VHH: QVQLQESGGGLVQPGGSLRLSCEASGFTFDDYGMSWVRQAPGKGLEWVSSLTPNGGSTYYADSVKGRFTISRDNAKNTLYLQMNSLKPEDTALYYCAKNSYYGAMDYWGKGTLVTVSS
For the molecule B8, the “Effective SDA Concentration at A450 0.15” value in [1] and in assay [3] was above 1000 ng/mL throughout. Moreover, the binding result in assay [1] is on record as “no binding (tested: 1000 ng/ml (A450 0.15 not reached))”. Besides, the “Effective SDA Concentration at A450 0.3” value in assay [2] is above 1000 ng/mL. For the same molecule, the maximal absorbance value turned out to be 0.16 A450 in assay [5], 0.09 A450 in assay [8], 0.08 A450 in assay [9] and 0.17 A450 in [10]. Also, the “minimal absorbance value (GT1b-TeNT inhibition)” value in assay [6] was found to be 0.72 A450. The “Effective SDA Concentration at A450 0.56” value in [7] was above 1000 ng/mL.

B9: SVT06-SVT16-L123Q-GS2-SVG13M4-H6 (bispecific antibody)
chain: QVQLQESGGGSVQAGGSLRLSCTASELSYDDYTIAWFRRAAGEGRVEDGEGVASITKSYDRAYDNKINYGHSVKGRFTISRDNAKNTVYLQMTDLLPSDTAVYYCALDITPPGGVGASLTEGFLFDYWGQGTQVTVSSQVQLQESGGGSVQAGDSLRLSCAASGRTISNYAMGWFRQAPGKQREFVAAISRSDNTYYTDSVKGRFTISRDNAKNTLYLQMNSLKPEETAVYYCAADPNLMYESKWKYRALEAWGQGTQVTVSSGGGGSGGGSEVQLVESGGGLVQPGGSLRLSCEASGFTFDDYGMSWVRQAPGKGLEWVSSLTPNGGSTYYADSVKGRFTISRDNAKNTLYLQMNSLKPEDTALYYCAKNSYYGAMDYWGQGTQVTVSSHHHHHH
notes: also called pRL501
Turning to B9, the “Effective SDA Concentration at A450 0.2” value in [4] is 134 ng/mL. In assay [5], this molecule showed a maximal absorbance value of 0.78 A450.

B10: SVT06-GS3-SVT02-GS2-SVG06M4-H6 (bispecific antibody)
chain: QVQLQESGGGSVQAGGSLRLSCTASELSYDDYTIAWFRRAAGEGRVEDGEGVASITKSYDRAYDNKINYGHSVKGRFTISRDNAKNTVYLQMTDLLPSDTAVYYCALDITPPGGVGASLTEGFLFDYWGQGTQVTVSSGGGGSGGGGSGGGGSQVQLQQSGGGSVQAGGSLRLSCVGPQRTFSTYGMGWFRQAPGKEREFVAGINYKGDTTYYADSVKGRFTISRDNAKNTLYLQMDSLKPEDRAVYQCARKGGLGGDYRDAGQYRYWGQGTQVTVSSGGGGSGGGSEVQLVESGGALVQPGGSLRLSCAASGFPFSAYDMTWVRQAPGQGLEWVSTIHKSGGITTYADSVKGRFTISRDNAKNTLYLQMNNLESEDTAVYYCAKALRAHNSDYVGRNALGSWGQGTQVTVSSHHHHHH
In [16], B10 registered a Kd of 0.13 nM, a koff of 4.27e-05 s⁻¹ and an association rate constant (kon) of 329000 M⁻¹ s⁻¹.

B11: SVA06L (VHH)
VHH: QVQLQESGGRLVQAEDSLRLSCAASGRTFVSYDMGWFRQAPGKEREFVAAINWRGYTTDYVDSVKGRFFISRDIAKSTVYLQMNNLKPEDTAVYYCAARQMSGSSRYSPPGRVGYDFWGQGTQVTVSS
With B11, in the assay with Cat albumin, the Kd amounted to 1.2 nM, the koff worked out at 0.000878 s⁻¹ and the kon turned out to be 729000 M⁻¹ s⁻¹. In addition, in the assay with Horse albumin, the Kd worked out at 13.5 nM, the off-rate constant (koff) amounted to 0.00977 s⁻¹ and the kon was determined as 726000 M⁻¹ s⁻¹. In the assay with Dog albumin, this molecule gave a Kd of 3.16 nM, a koff of 0.00224 s⁻¹ and a kon of 711000 M⁻¹ s⁻¹.

B12: SVT15L (VHH)
VHH: QVQLQESGGGLVQTGGSLRLSCRASGRAFANYHFGWFRQAPGKDREFVASISWKGGSTYYANFALGRFTSSVDRAESSVYLQMSGLTPEDTATYYCAAHDGGDWNYHTGMDYWGKGILVTVSS
Regarding B12, in assay [12], the Kd turned out to be 0.413 nM, the off-rate (koff) was 3.87e-05 s⁻¹ and the kon is 93600 M⁻¹ s⁻¹.

B13: SVT15L (VHH)
VHH: QVQLQESGGGLVQTGGSLRLSCRASGRAFANYHFGWFRQAPGKDREFVASISWKGGSTYYANFALGRFTSSVDRAESSVYLQMSGLTPEDTATYYCAAHDGGDWNYHTGMDYWGKGILVTVSS
On to B13, for which, in assay [13], the Kd amounted to 0.772 nM, the koff came out at 8.57e-05 s⁻¹ and the kon turned out to be 111000 M⁻¹ s⁻¹.

For the origin of these results see patent US20240376185A1 (SMIVET B V, published 2024).
